Laboratory results: the supplement of paper PMC12042874
± gives the uncertainty stated by the source.

Experiment: amyloid nucleation score (Sup35N fusion, yeast selection) (log enrichment); library NNK2; higher = more nucleation; inactive = no reads after selection
Summary of the method: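 Nucleation score: DiMSum log enrichment of output over input reads, centred on the mode score of non-aggregating sequences. Only sequences with at least 100 input reads were kept. Reads came from Illumina sequencing of plasmid inserts before and after 7 days of growth at 30°C without adenine and uracil, in psi-negative yeast expressing Sup35N fused to peptides of 20 random codons after 24 hours of induction with 100 μM copper sulfate.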
With CKWWGRGEGDIVVLWLSEKL the amyloid nucleation score was 0.942 ± 0.66. With CLCCYTIM the amyloid nucleation score was 7.381 ± 0.044. CLCGYYQSRMDTYYEL showed an amyloid nucleation score of -2.18 ± 0.54. For CLCPTNYDSSRIYLVRC, the amyloid nucleation score was “inactive”. For CLDFYFIVGNFNQHLVRCVL, the amyloid nucleation score was 1.79 ± 0.16. In the case of CLDNNKNYLDSRCGIRCY, the amyloid nucleation score is reported as “inactive”. For CLINMTIYGERWRCVNDVPN, the amyloid nucleation score was 3.54 ± 0.052. With CLKFFADGSQAGCSERAGLR the amyloid nucleation score was 0.041 ± 0.28. CLLLLCNPRISAE gave an amyloid nucleation score of -0.582 ± 0.76. CLMDCGLYFTGSNLRAMCTW gave an amyloid nucleation score of -0.223 ± 0.49. CLNKIETPSTVKFRECHCCD showed an amyloid nucleation score of 4.517 ± 0.041. With CLNPFDSYGTSYCKCWWSAT the amyloid nucleation score was -0.451 ± 0.33. Substance CLNTLFVEFRCLSMGACCGI has an amyloid nucleation score of 1.1 ± 0.31. For CLPFYCTFGSVVARAGVYH, the amyloid nucleation score was “inactive”. Work on CLQCQLIRRGLTKMNMGFAS yielded an amyloid nucleation score of -0.023 ± 0.45. For CLRFC, the amyloid nucleation score was -0.453 ± 1.1. CLSGLLIWAHHSLKLDVLIG gave an amyloid nucleation score of 0.366 ± 0.64. In the case of CLVWLDI, the amyloid nucleation score is reported as -1.11 ± 0.55. For CLYCGDLLLRFEYKCRGVNQ, the amyloid nucleation score was 5.15 ± 0.092. For CLYRRLYKLALNMEIIILRY, the amyloid nucleation score was “inactive”. In the case of CMFSLNGAYSMPHVKMSMCM, the amyloid nucleation score is reported as -0.786 ± 0.46. With CMKGVNSLDIASVSQFNLNR the amyloid nucleation score was 2.28 ± 0.13. CMSNAKCKGVDFAAGKLLSC showed an amyloid nucleation score of -0.004 ± 0.49. Substance CMSRFGRCNFVHDTWMGFTR has an amyloid nucleation score of 2.93 ± 0.1. Work on CMWWIHDPGRDRLKELKVAR yielded an amyloid nucleation score of 0.452 ± 0.36. Work on CNCQMGDVLEGLGDVGLNNF yielded an amyloid nucleation score of -1.65 ± 0.62. For CNEDFLSQLVVLHFKEYGDN, the amyloid nucleation score was “inactive”. CNERFERLFISVTGFVMRRH showed an amyloid nucleation score of -0.358 ± 0.39. In the case of CNLSVVYLLDMAD, the amyloid nucleation score is reported as 3.99 ± 0.044. With CNMLRVNHRNLVLTDMCNG the amyloid nucleation score was 0.204 ± 0.8. Work on CNNCYALYHDGV yielded an amyloid nucleation score of -0.396 ± 0.39. CNTLLTFNYNAYVIEVM showed an amyloid nucleation score of 0.839 ± 0.17. CNVHWGRL showed an amyloid nucleation score of 0.089 ± 0.8. With CNYKYSDLVFHCLPPGRGYN the amyloid nucleation score was “inactive”. Substance CPCYCLTSFACLGNSVPTWR has an amyloid nucleation score of 10.15 ± 0.043. With CPMCTFLCCLAFY the amyloid nucleation score was 8.626 ± 0.04. In the case of CQCSVSVGNTDSHNLPKVYV, the amyloid nucleation score is reported as -0.221 ± 1.1. In the case of CQMYYFYFNLLMWDMA, the amyloid nucleation score is reported as “inactive”. With CQPNLWARVCLVWCYW the amyloid nucleation score was 3 ± 0.094. In the case of CRIGA, the amyloid nucleation score is reported as -0.252 ± 0.28. Substance CRLPQQKPHEMPTLDDFARS has an amyloid nucleation score of 0.553 ± 0.44. For CRNCLLGHLRLVTHHVRILY, the amyloid nucleation score was “inactive”. CRSCVVSYCGCEYLESLGGK showed an amyloid nucleation score of 0.525 ± 0.64. With CRVNRGRGNSTTLYMMDFGY the amyloid nucleation score was 2.7 ± 0.088. For CRWISTTLIFARCELFRLAV, the amyloid nucleation score was 0.567 ± 0.38. With CSCEVALIIK the amyloid nucleation score was “inactive”. In the case of CSCGYMKANR, the amyloid nucleation score is reported as -0.721 ± 1. In the case of CSCHKSSCLRTTFCLEHSSG, the amyloid nucleation score is reported as 6.866 ± 0.062. In the case of CSDRSICFANSYFEF, the amyloid nucleation score is reported as -0.101 ± 0.63. With CSHPFDYVQTILRTVTLFLI the amyloid nucleation score was -0.114 ± 0.63. For CSINLRAYPVLSRGATVACK, the amyloid nucleation score was 0.755 ± 0.55. CSLFYRSS showed an amyloid nucleation score of 4.06 ± 0.056. Work on CSLQYYSLRNDRDRVTELRR yielded an amyloid nucleation score of 0.475 ± 0.51. CSLTSFAGNSIYFRWRANT gave an amyloid nucleation score of 1.18 ± 0.14. Substance CSMKYGCRVYVRNPSLSECD has an amyloid nucleation score of 0.547 ± 0.45. CSNYQRYTILVYPTRSYGCL gave an amyloid nucleation score of 0.558 ± 0.6. CSRGP showed an amyloid nucleation score of 0.534 ± 0.64. In the case of CSTTWGDTIAGHEAGLVSLS, the amyloid nucleation score is reported as 1.02 ± 0.37. For CTIRLECLLA, the amyloid nucleation score was -0.428 ± 0.46. Work on CTLRGGYISWVQVYE yielded an amyloid nucleation score of 2.1 ± 0.1. CTPLGFCSKNRLGLQEDGVK showed an amyloid nucleation score of -0.788 ± 0.76. Work on CTSHWAYEDEDFFIDRLYFT yielded an amyloid nucleation score of -0.796 ± 0.3. In the case of CTTSWKMSCKFALGN, the amyloid nucleation score is reported as 4.04 ± 0.07. Work on CTWDFNDHFMLVQNNDEQLW yielded an amyloid nucleation score of 0.087 ± 0.79. With CVDSKWLYFGRWSTQVIDI the amyloid nucleation score was -0.196 ± 1. In the case of CVGGVSNCMRYGKTFRDESY, the amyloid nucleation score is reported as -0.438 ± 0.27. In the case of CVMFTLSCVNFDCDCSCRWK, the amyloid nucleation score is reported as 6.31 ± 0.084. In the case of CVMIESLKVFISPWLASRIR, the amyloid nucleation score is reported as -0.291 ± 0.65. For CVMNF, the amyloid nucleation score was -0.586 ± 0.42. Work on CVNITYI yielded an amyloid nucleation score of 4.625 ± 0.031. Work on CVRCTFCIVSVICFSIYLSE yielded an amyloid nucleation score of -0.448 ± 0.55. CVSVAFNRNISWW showed an amyloid nucleation score of -0.021 ± 0.34. Work on CVTRMDYTDVSDMHLM yielded an amyloid nucleation score of 0.307 ± 0.56. In the case of CVWHVF, the amyloid nucleation score is reported as “inactive”. CVYEIPKM gave an amyloid nucleation score of 3.09 ± 0.048. Work on CWGVVGSAAGWYSGTK yielded an amyloid nucleation score of 1.46 ± 0.21. Work on CWRVDSFVLGNHNGIGVCFV yielded an amyloid nucleation score of -0.918 ± 0.41. With CYAIMNGVSFLDLIGGARET the amyloid nucleation score was 5.85 ± 0.077. CYFNARSDSVNVYVV showed an amyloid nucleation score of -0.029 ± 1.1. CYGVFLVVSWDHGGDQIGVV gave an amyloid nucleation score of -0.482 ± 0.48. CYHVTLMR showed an amyloid nucleation score of 0.718 ± 0.26. Work on CYIRSVFSQWLTACLVNWFM yielded an amyloid nucleation score of -1.86 ± 1.1. For CYISFWARRFDEYLSLLSFA, the amyloid nucleation score was -0.343 ± 0.42. CYLMKSFMNLSDRNVFGNVT showed an amyloid nucleation score of -0.295 ± 0.32. Substance CYRHSERYRTSSLLSWERGP has an amyloid nucleation score of 0.783 ± 0.57. Work on CYWWDWVLY yielded an amyloid nucleation score of -0.032 ± 0.45. Substance DAFWLWSFIWACVLCFTKHR has an amyloid nucleation score of -0.549 ± 0.45. With DAFYDS the amyloid nucleation score was -2.05 ± 0.75. Work on DAKRVQIYF yielded an amyloid nucleation score of 1.02 ± 0.68. With DANLQIH the amyloid nucleation score was -0.774 ± 0.45. With DARSDVF the amyloid nucleation score was “inactive”. DAVFGTCSLFCRTCAKASFG showed an amyloid nucleation score of 1.58 ± 0.25. In the case of DCCRWSVLVVIVLAARSSMS, the amyloid nucleation score is reported as 3.17 ± 0.099. DCIHCSRTNAADWMGYVFGY showed an amyloid nucleation score of 4.82 ± 0.085. Work on DCLYGRFRHRHG yielded an amyloid nucleation score of 5.723 ± 0.035. For DCMLNGLRWEMMLYKLDCFT, the amyloid nucleation score was 0.189 ± 0.64. Substance DCMTMINLICNGMPAICRMT has an amyloid nucleation score of 0.445 ± 0.18. Substance DCQVSTLAYWSRVKMFQYQK has an amyloid nucleation score of 3.71 ± 0.077. With DCSDPCGSAPKDLSTKTVRC the amyloid nucleation score was 1.61 ± 0.26. Substance DDCKQRTHNDYMD has an amyloid nucleation score of 0.175 ± 0.37. For DDSHLNCDNRIVISMLRNGN, the amyloid nucleation score was 0.528 ± 0.32. Work on DEMARVYIHY yielded an amyloid nucleation score of 0.183 ± 0.74. Substance DFDVEA has an amyloid nucleation score of -0.176 ± 1.1. For DFIMFLAGPNSVNYNVVLYF, the amyloid nucleation score was 7.437 ± 0.055. DFINIPSVFIIYMK showed an amyloid nucleation score of 1.73 ± 0.13. Work on DFKDEGYQRRV yielded an amyloid nucleation score of -0.37 ± 0.65. In the case of DFLSGTMVDETSDKGISLLV, the amyloid nucleation score is reported as 0.605 ± 0.47. For DFLVYCGLLEQLWLLSDAKC, the amyloid nucleation score was -0.356 ± 1.1. Work on DFMRDFWKDSDNQEVFLLPI yielded an amyloid nucleation score of -0.885 ± 0.44. In the case of DFSMIGSEKVAPGKNPDASL, the amyloid nucleation score is reported as 0.22 ± 0.57. For DGCLARGYNKGVHDGVVEYL, the amyloid nucleation score was -0.088 ± 1.1. Work on DGDNNCMCS yielded an amyloid nucleation score of 0.404 ± 0.48. DGHVELCISAKDYD showed an amyloid nucleation score of -0.249 ± 0.53. DGLARAYAARM gave an amyloid nucleation score of 1.53 ± 0.29. Substance DGPNYILQVFCCMMVNVCGC has an amyloid nucleation score of 7.609 ± 0.061. In the case of DGPWYYTVRAEIQPM, the amyloid nucleation score is reported as 3.78 ± 0.079. In the case of DGRKALI, the amyloid nucleation score is reported as 1.87 ± 0.35. For DHPYTRKFI, the amyloid nucleation score was -0.311 ± 0.79. Work on DHRIWKAAREVVLVCHL yielded an amyloid nucleation score of 0.629 ± 0.4. With DIDAIYTFRACGDMPSHFRR the amyloid nucleation score was -0.172 ± 0.35. With DIIVYM the amyloid nucleation score was “inactive”. DILMLNRSVGDIREAISVNG showed an amyloid nucleation score of 0.48 ± 0.51. For DIMTYPLRSINRRFKGVGRR, the amyloid nucleation score was 4.481 ± 0.039. Work on DIPLSSAKAYI yielded an amyloid nucleation score of 0.443 ± 0.8. DIVRSYV showed an amyloid nucleation score of -0.27 ± 0.45. Work on DIWKTQ yielded an amyloid nucleation score of 0.218 ± 0.8. In the case of DIWYLICLSQSSGLFLVGVM, the amyloid nucleation score is reported as -0.55 ± 0.79. In the case of DKSCLISVMLICLL, the amyloid nucleation score is reported as 5.21 ± 0.059. For DKSIR, the amyloid nucleation score was 0.239 ± 0.33.
